To fix the notation:
B1: AC3804 (CD3.300) (scFv, V domains shown)
VH: EVQLVESGGGIVQPGGSLRLSCAASGFTFSTYAMNWVRQAPGKGLEWVGRIRTKRNNYATYYADSVKGRFTISRDDSKNTVYLQMNSLKTEDTAVYYCVRHENFGNSYVSWFAHWGQGTLVTVSS
VL: ELVVTQEPSLTVSPGGTVTLTCRSSNGAVTSSNYANWVQQKPGQAPRGLIGGTNKRAPGTPARFSGSLLEGKAALTLSGVQPEDEAVYYCALWYPNLWVFGGGTKLTVL
notes: Pool 3 format (remarks)
B2: AC3807 (CD3.303) (scFv, V domains shown)
VH: B1 VH with N57D, V81A
VL: B1 VL with L68G, E70G
notes: Pool 3 format (remarks)
B3: AC3817 (CD3.313) (scFv, V domains shown)
VH: B1 VH with N57D, V81L
VL: B1 VL with L69N, E70G
notes: Pool 3 format (remarks)
B4: AC3884 (CD3.380) (scFv, V domains shown)
VH: B1 VH with A59T
VL: B1 VL with E70G
notes: Pool 3 format (remarks)
B5: AC3844 (CD3.340) (scFv, V domains shown)
VH: B1 VH with S30N, R55T, N57D, V81L
VL: B1 VL with L69N, E70G
notes: Pool 3 format (remarks)
B6: AC3880 (CD3.376) (scFv, V domains shown)
VH: B1 VH with R55P
VL: B1 VL with E70G
notes: Pool 3 format (remarks)
B7: AC3836 (CD3.332) (scFv, V domains shown)
VH: B1 VH with S30N, R55T, N57D, V81A
VL: B1 VL with L69E, E70G
notes: Pool 3 format (remarks)
B8: AC3824 (CD3.320) (scFv, V domains shown)
VH: B1 VH with S30N, R55T
VL: B1 VL with L68A, E70G
notes: Pool 3 format (remarks)
B9: AC3818 (CD3.314) (scFv, V domains shown)
VH: B1 VH with N57D, V81L
VL: B1 VL with L69E, E70G
notes: Pool 3 format (remarks)
B10: AC3840 (CD3.336) (scFv, V domains shown)
VH: B1 VH with S30N, R55T, N57D, V81A
VL: B1 VL
notes: Pool 3 format (remarks)
B11: AC3845 (CD3.341) (scFv, V domains shown)
VH: B1 VH with S30N, R55T, N57D, V81L
VL: B1 VL with L69E, E70G
notes: Pool 3 format (remarks)
B12: AC3828 (CD3.324) (scFv, V domains shown)
VH: B1 VH with S30N, R55T
VL: B1 VL with L69G, E70G
notes: Pool 3 format (remarks)
B13: AC3659 (CD3.228) (bispecific antibody, V domains shown)
VH: B1 VH
VL: B1 VL with E70G
notes: Pool 2 format (remarks)
B14: AC3810 (CD3.306) (scFv, V domains shown)
VH: B1 VH with N57D, V81A
VL: B1 VL with L69G, E70G
notes: Pool 3 format (remarks)
B15: AC3825 (CD3.321) (scFv, V domains shown)
VH: B1 VH with S30N, R55T
VL: B1 VL with L68G, E70G
notes: Pool 3 format (remarks)
B16: AC3846 (CD3.342) (scFv, V domains shown)
VH: B1 VH with S30N, R55T, N57D, V81L
VL: B1 VL with L69G, E70G
notes: Pool 3 format (remarks)
B17: AC3839 (CD3.335) (scFv, V domains shown)
VH: B1 VH with S30N, R55T, N57D, V81A
VL: B1 VL with E70G, A74G
notes: Pool 3 format (remarks)
B18: AC3882 (CD3.378) (scFv, V domains shown)
VH: B1 VH with Y62D
VL: B1 VL with E70G
notes: Pool 3 format (remarks)
B19: AC3819 (CD3.315) (scFv, V domains shown)
VH: B1 VH with N57D, V81L
VL: B1 VL with L69G, E70G
notes: Pool 3 format (remarks)
B20: AC3821 (CD3.317) (scFv, V domains shown)
VH: B1 VH with N57D, V81L
VL: B1 VL with E70G, A74G
notes: Pool 3 format (remarks)
B21: AC3847 (CD3.343) (scFv, V domains shown)
VH: B1 VH with S30N, R55T, N57D, V81L
VL: B1 VL with L69D, E70G
notes: Pool 3 format (remarks)
B22: AC3815 (CD3.311) (scFv, V domains shown)
VH: B1 VH with N57D, V81L
VL: B1 VL with L68A, E70G
notes: Pool 3 format (remarks)
B23: AC3837 (CD3.333) (scFv, V domains shown)
VH: B1 VH with S30N, R55T, N57D, V81A
VL: B1 VL with L69G, E70G
notes: Pool 3 format (remarks)
B24: AC3835 (CD3.331) (scFv, V domains shown)
VH: B1 VH with S30N, R55T, N57D, V81A
VL: B1 VL with L69N, E70G
notes: Pool 3 format (remarks)
B25: AC3660 (CD3.229) (bispecific antibody, V domains shown)
VH: B1 VH with S30N, R55T
VL: B1 VL with E70G
notes: Pool 2 format (remarks)
B26: AC3857 (CD3.353) (scFv, V domains shown)
VH: B1 VH with R55T
VL: B1 VL with E70G, A74G
notes: Pool 3 format (remarks)
B27: AC3848 (CD3.344) (scFv, V domains shown)
VH: B1 VH with S30N, R55T, N57D, V81L
VL: B1 VL with E70G, A74G
notes: Pool 3 format (remarks)
B28: AC3826 (CD3.322) (scFv, V domains shown)
VH: B1 VH with S30N, R55T
VL: B1 VL with L69N, E70G
notes: Pool 3 format (remarks)
B29: AC3869 (CD3.365) (scFv, V domains shown)
VH: B1 VH with R55T, N57D, V81L
VL: B1 VL with L68A, E70G
notes: Pool 3 format (remarks)
B30: AC3820 (CD3.316) (scFv, V domains shown)
VH: B1 VH with N57D, V81L
VL: B1 VL with L69D, E70G
notes: Pool 3 format (remarks)
B31: AC3842 (CD3.338) (scFv, V domains shown)
VH: B1 VH with S30N, R55T, N57D, V81L
VL: B1 VL with L68A, E70G
notes: Pool 3 format (remarks)
B32: AC3816 (CD3.312) (scFv, V domains shown)
VH: B1 VH with N57D, V81L
VL: B1 VL with L68G, E70G
notes: Pool 3 format (remarks)
B33: AC3808 (CD3.304) (scFv, V domains shown)
VH: B1 VH with N57D, V81A
VL: B1 VL with L69N, E70G
notes: Pool 3 format (remarks)
B34: AC3883 (CD3.379) (scFv, V domains shown)
VH: B1 VH with Y62W
VL: B1 VL with E70G
notes: Pool 3 format (remarks)
B35: AC3812 (CD3.308) (scFv, V domains shown)
VH: B1 VH with N57D, V81A
VL: B1 VL with E70G, A74G
notes: Pool 3 format (remarks)
B36: AC3830 (CD3.326) (scFv, V domains shown)
VH: B1 VH with S30N, R55T
VL: B1 VL with E70G, A74G
notes: Pool 3 format (remarks)
B37: AC3838 (CD3.334) (scFv, V domains shown)
VH: B1 VH with S30N, R55T, N57D, V81A
VL: B1 VL with L69D, E70G
notes: Pool 3 format (remarks)
B38: AC3843 (CD3.339) (scFv, V domains shown)
VH: B1 VH with S30N, R55T, N57D, V81L
VL: B1 VL with L68G, E70G
notes: Pool 3 format (remarks)
B39: AC3877 (CD3.373) (scFv, V domains shown)
VH: B1 VH with W47D
VL: B1 VL with E70G
notes: Pool 3 format (remarks)
B40: AC3867 (CD3.363) (scFv, V domains shown)
VH: B1 VH with R55T, N57D, V81A
VL: B1 VL
notes: Pool 3 format (remarks)
B41: AC3806 (CD3.302) (scFv, V domains shown)
VH: B1 VH with N57D, V81A
VL: B1 VL with L68A, E70G
notes: Pool 3 format (remarks)
B42: AC3814 (CD3.310) (scFv, V domains shown)
VH: B1 VH with N57D, V81L
VL: B1 VL with E70G
notes: Pool 3 format (remarks)
B43: AC3829 (CD3.325) (scFv, V domains shown)
VH: B1 VH with S30N, R55T
VL: B1 VL with L69D, E70G
notes: Pool 3 format (remarks)
B44: AC3841 (CD3.337) (scFv, V domains shown)
VH: B1 VH with S30N, R55T, N57D, V81L
VL: B1 VL with E70G
notes: Pool 3 format (remarks)
B45: AC3849 (CD3.345) (scFv, V domains shown)
VH: B1 VH with S30N, R55T, N57D, V81L
VL: B1 VL
notes: Pool 3 format (remarks)
B46: AC3834 (CD3.330) (scFv, V domains shown)
VH: B1 VH with S30N, R55T, N57D, V81A
VL: B1 VL with L68G, E70G
notes: Pool 3 format (remarks)

Changes are numbered by the printed parent chain.

In the experiment the target is T1, huCD3e-mFc (human, UniProt P07766 23-126).
T1 construct: not shown: mFc, not described
T1 sequence (P07766 23-126): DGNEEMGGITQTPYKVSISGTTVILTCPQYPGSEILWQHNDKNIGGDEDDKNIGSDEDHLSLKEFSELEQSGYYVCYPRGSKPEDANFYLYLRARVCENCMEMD
Put plainly: Pool 3 screen.
B1 registered a Kd of 36.6 nM.

B2 showed a Kd of 6.08 nM. With B3 the figure was 3.86 nM; with B4, 4.54 nM. With B5 the figure was 10.6 nM; with B6, 12.9 nM; with B7, 30.6 nM.

The molecule B8 had a Kd of 10.9 nM. In turn, B9 yielded a Kd of 4.02 nM.

With B10, the Kd came to 32.6 nM. Take B11: the dissociation constant (Kd) was 15.8 nM. As for B12, the affinity, expressed as Kd, was 7.21 nM. Under B13 stands 5.14 nM. B14 gave an equilibrium dissociation constant (Kd) of 5.09 nM. For the molecule B15, the dissociation constant (Kd) is 10 nM. Under B16 stands 9.99 nM; under B17, 24.5 nM; under B18, 3.74 nM. With B19 the figure was 3.4 nM; with B20, 4.1 nM; with B21, 14 nM. With B22 the figure was 4.53 nM; with B23, 17.9 nM. Consider B24, for which binding was characterised by a dissociation constant (Kd) of 35.7 nM. Molecule B25 came in with a Kd of 13.6 nM. Turning to B26, binding was put at a Kd of 12.3 nM. Under B27 stands 14.2 nM; under B28, 7 nM; under B29, 18.8 nM. With B30 the figure was 3.99 nM; with B31, 17 nM. Under B32 stands 4.12 nM; under B33, 4.31 nM. B34 came in with a dissociation constant Kd of 4.19 nM.

With B35, the affinity, expressed as Kd, was 5.56 nM. B36 came in with a Kd of 6.65 nM.

B37 returned a Kd of 30.7 nM.

As to B38, the dissociation constant Kd came out at 15.4 nM. The molecule B39 registered a Kd of 8.92 nM. Under B40 stands 62.7 nM; under B41, 5.09 nM. In turn, B42 registered a Kd of 4.1 nM.

B43: binding was characterised by a dissociation constant (Kd) of 10.1 nM. Molecule B44 yielded a dissociation constant Kd of 12.2 nM.

As to B45, the Kd is 18 nM. Under B46 stands 23.4 nM.

As a reminder, the Kd is the constant that tells how readily two partners part at equilibrium. A low value points to higher affinity.

(Values after patent publication US20260167728A1 (published 2026).)
